# B1: TPR t1 (parent)
# chain: GACCAAUCUGCCCUCAGAGCUCGAGAACAUCUUCGGAUGCAGAGGAGGCAGGCUUCGGUGGCGCGAUAGCGCCAACGUCCUCAACCUCCAAUGCAUCCCACCACAUGAUGAUGCCUGAAGAGCCUUGGUUUUUUG
# Variants of: B1
# Assay: polymerase ribozyme fitness, log enrichment relative to wild type (log ratio); higher = more active; in vitro selection for triplet polymerase activity
# Outline: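 Mutant libraries for each subunit of a heterodimeric triplet polymerase ribozyme were made by PCR and then transcribed. Each library underwent one round of in vitro selection in triplicate: annealing with a biotinylated primer, the partner subunit and triplets, frozen incubation at −7 °C, gel excision of extended constructs, streptavidin-bead capture and RT-PCR. Input and output libraries were Illumina-sequenced, and only genotypes with ≥10 input reads and ≥1 read per output were kept. Fitness is the logarithm, base 2, of genotype enrichment over wild-type enrichment, computed from inverse-variance-weighted replicate averages.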
row,Variant,polymerase ribozyme fitness (log ratio)
1,C53U C104A,-1.8
2,C53U U55A,-0.075
3,G51C C72A U129G,-4.58
4,G52A C62U,-0.528
5,G51U G60A C124U,-4.52
6,G52U G61U,-0.708
7,G52U G61A,-1.14
8,C53G G63C G93C C114A,-3.01
9,G51U C53G C124A U133A U134G,-1.64
10,G51U U59G G63C G77C C80U U87C C124G U131G,-0.602
11,C53G G110C,-4.65
12,G52A C53A G77A A84U G122A,-2.24
13,C53U A91C U92A G122A,-4.02
14,G52A C76U,-0.303
15,C53U A121U,0.893
16,C53U C94A A121C,0.891
17,G52C C73G C82A,-1.97
18,G52U C73G A84U,-1.78
19,G52C U125G,-1.59
20,G51A G60A A84G G120U,-2.9
21,U54C C115A G122A C123A U131A,-1.4

row,Variant,polymerase ribozyme fitness (log ratio)
1,C53A G61U C82G A84G,-0.925
2,G51C A111U,-6.8
3,C53U G71U G127A,-1.14
4,C53G C70G C104U C114U G120U C123G C124A,-6.46
5,G52C C86A C114U G120U,-5.89
6,U54A G69U G128C U130A U132A,-2.67
7,G51U C97U U132A,-2.51
8,C53G G63C,-1.3
9,U54A C89U U96C G127A,-1.97
10,G51U U78G U112C C123A U130A,-3.11
11,G51C C56A G77U U78A,-3.51
12,G52U C56G C89U,-1.53
13,C53A G61C U116C,-5.85
14,C53A G71C C85A G117A U125G,-5.65
15,U54C C76U,-0.00868
16,C53A U78C C82U C102U,-0.997
17,U54C C86G U112G G120C,-1.16
18,C53U C73G G113C,-4.51
19,G52U G58A C79G C85A G107U G113A,-6.66
20,C53G G69A,-3.62
21,C53U U59G,-0.253

row,Variant,polymerase ribozyme fitness (log ratio)
1,G51U G60C,-2.36
2,G52U U106A,-0.189
3,C53G C72A U112G G113C,-7.66
4,G52A U55A G61A C97U C101G U125G,-2.53
5,C53U G63C,-2.11
6,G51U G110A U132A,-5.7
7,C53U C85U G127C,-2.36
8,U54A C73U A121U U130A,2.07
9,C53A C56A A90G C97A U132C,-3.46
10,G52C G63A C102U C104A,-3.27
11,C53U U59C C89A C104U G117C G128U,-6.6
12,G52U G63U,-0.651
13,C53A G71A C124A,0.149
14,G52U G60A C104U C115G A121C,-4.03
15,G51C C80G G135U,-1.27
16,C53A G61C G110A A119U U133A,-4.96
17,C53A C56U,-0.113
18,C53A U106G A121U,0.877
19,C53G C62A C70U U78G,-2.63
20,G51U C62A,-5.43
21,G51U C62G,-5.98

row,Variant,polymerase ribozyme fitness (log ratio)
1,G52C C82A U112G,-1.29
2,G51A G60A C124G,-1.16
3,C53G C104U A111G,0.815
4,C53A U112A,0.632
5,G51U C73A G117A,-4.4
6,G52U G69U G71C,-1.06
7,C53G,-0.355
8,C53U,-0.1
9,C53A,0.0557
10,C53A U55A C70U,-0.287
11,C53U C73G,-2.05
12,G52A C72G,-0.491
13,C53G G61C A83G C88G C104A,-4.92
14,U54C G58A G69C A84U,-1.08
15,G51A C72G C79U,-3.08
16,G51A C56U G93U,-3.4
17,G52A G57A A66U G127C,-3.31
18,G51U C85U,-4.37
19,C53G G63A C94A C115G G128C,-6.79
20,G51U C88U G113C,-5.71

# — the RNAGym collection of RNA variant scans (doi:10.1073/pnas.2313332121)
